Test results: the supplement of paper PMC10567573

B1: CDC25B (parent)
chain: KSPIAPCSLDKRVILIFHCEFSSE

Variants of: B1
Test: protein stability index of a GFP-peptide fusion (GPS, HEK-293T) (PSI 1-6); higher = more stable
Conditions: c terminus: a fixed tail appended
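Further: lentivirally expressed fusions sorted by FACS into six bins by GFP to DsRed ratio, PSI derived from sequencing read proportions per bin multiplied by bin number.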

Variant	protein stability index
KSPIAPCSLDKRVIYIFHCEFSSE [L15Y]	2.66
KSPIAPCSLDKRVIPIFHCEFSSE [L15P]	2.28
KSPIAPCSLDKRVIFIFHCEFSSE [L15F]	2.88
KSPIAPCSLDKRVITIFHCEFSSE [L15T]	1.8
KSPIAPCSLDKRVIQIFHCEFSSE [L15Q]	1.84
KSPIAPCSLDKRVINIFHCEFSSE [L15N]	2.21
KSPIAPCSLDKRVISIFHCEFSSE [L15S]	1.86
KSPIAPCSLDKRVIKIFHCEFSSE [L15K]	1.42
KSPIAPCSLDKRVIMIFHCEFSSE [L15M]	2.88
KSPIAPCSLDKRVIHIFHCEFSSE [L15H]	1.05
KSPIAPCSLDKRVIDIFHCEFSSE [L15D]	2.38
KSPIAPCSLDKRVIIIFHCEFSSE [L15I]	3.49
KSPIAPCSLDKRVIEIFHCEFSSE [L15E]	1.83
KSPIAPCSLDKRVIRIFHCEFSSE [L15R]	1.71
KSPIAPCSLDKRVIGIFHCEFSSE [L15G]	1.39
KSPIAPCSLDKRVIAIFHCEFSSE [L15A]	2.68
KSPIAPQSLDKRVILIFHCEFSSE [C7Q]	2.01
KSPIAPVSLDKRVILIFHCEFSSE [C7V]	3.75
KSPIAPSSLDKRVILIFHCEFSSE [C7S]	2.13
KSPIAPRSLDKRVILIFHCEFSSE [C7R]	3.39
KSPIAPPSLDKRVILIFHCEFSSE [C7P]	2.65
KSPIAPTSLDKRVILIFHCEFSSE [C7T]	2.55
KSPIAPCWLDKRVILIFHCEFSSE [S8W]	1.81
KSPIAPCILDKRVILIFHCEFSSE [S8I]	2.17

Variant	protein stability index
KSPIAPCDLDKRVILIFHCEFSSE [S8D]	2.31
KSPIAPCELDKRVILIFHCEFSSE [S8E]	1.45
KSPIAPCCLDKRVILIFHCEFSSE [S8C]	3
KSPIAPCKLDKRVILIFHCEFSSE [S8K]	2.88
KSPIAPCVLDKRVILIFHCEFSSE [S8V]	2.5
KSPIAPCLLDKRVILIFHCEFSSE [S8L]	1
KSPIAPCTLDKRVILIFHCEFSSE [S8T]	4.2
KSPIAPCGLDKRVILIFHCEFSSE [S8G]	3.16
KSPIAPCHLDKRVILIFHCEFSSE [S8H]	3.03
KSPIAPCALDKRVILIFHCEFSSE [S8A]	3.52
KSPIAPCMLDKRVILIFHCEFSSE [S8M]	2.28
KSPIAPCFLDKRVILIFHCEFSSE [S8F]	2.12
KSPIAPCSLDKIVILIFHCEFSSE [R12I]	3.03
KSPIAPCSLDKDVILIFHCEFSSE [R12D]	3.43
KSPIAPCSLDKYVILIFHCEFSSE [R12Y]	3.38
KSPIAPCSLDKPVILIFHCEFSSE [R12P]	2.66
KSPIAPCSLDKHVILIFHCEFSSE [R12H]	2.79
KSPIAPCSLDKSVILIFHCEFSSE [R12S]	4.14
KSPIAPCSLDKKVILIFHCEFSSE [R12K]	3.98
KSPIAPCSLDKGVILIFHCEFSSE [R12G]	2.23
KSPIAPCSLDKFVILIFHCEFSSE [R12F]	5.41
KSPIAPCSLDKMVILIFHCEFSSE [R12M]	2.89
KSPIAPCSLDKNVILIFHCEFSSE [R12N]	2.76
KSPIAPCSLDKLVILIFHCEFSSE [R12L]	3.04

Variant	protein stability index
KSPIAPCSLDCRVILIFHCEFSSE [K11C]	2.52
KSPIAPCSLDFRVILIFHCEFSSE [K11F]	2.69
KSPIAPCSLDLRVILIFHCEFSSE [K11L]	2.35
KSPIAPCSLDPRVILIFHCEFSSE [K11P]	3.23
KSPIAPCSLDHRVILIFHCEFSSE [K11H]	2.1
KSPIAPCSLDQRVILIFHCEFSSE [K11Q]	2.16
KSPIAPCSLDMRVILIFHCEFSSE [K11M]	2.9
KSPIAPCSLDYRVILIFHCEFSSE [K11Y]	2.32
KSPIAPCSLDIRVILIFHCEFSSE [K11I]	3.79
KSPIAPCSLDVRVILIFHCEFSSE [K11V]	4.34
KSPIAPCSLDKRVMLIFHCEFSSE [I14M]	2.35
KSPIAPCSLDKRVCLIFHCEFSSE [I14C]	1.54
KSPIAPCSLDKRVPLIFHCEFSSE [I14P]	2.25
KSPIAPCSLDKRVSLIFHCEFSSE [I14S]	1.94
KSPIAPCSLDKRVVLIFHCEFSSE [I14V]	2.87
KSPIAPCSLDKRVRLIFHCEFSSE [I14R]	1.79
KSPIAPCSLDKRVHLIFHCEFSSE [I14H]	3.76
KSPIAPCSLDKRVELIFHCEFSSE [I14E]	2.07
KSPIAPCSLDKRVLLIFHCEFSSE [I14L]	1.95
KSPIAPCSLDKRVALIFHCEFSSE [I14A]	2.65
KSPIAPCSLDKRVNLIFHCEFSSE [I14N]	1.96
KSPIAPCSLDKRVFLIFHCEFSSE [I14F]	2.94
KSPIAPCSLDKRVDLIFHCEFSSE [I14D]	2.54
KSPIAPCSLDKRVQLIFHCEFSSE [I14Q]	1.1

Variant	protein stability index
KSPIAPCSLDKRVGLIFHCEFSSE [I14G]	1.56
KSPIAPCSLDKRVTLIFHCEFSSE [I14T]	2.1
KSPIAPCSLDKRVILIVHCEFSSE [F17V]	4.17
KSPIAPCSLDKRVILITHCEFSSE [F17T]	1.8
KSPIAPCSLDKRVILIGHCEFSSE [F17G]	1.39
KSPIAPCSLDKRVILIKHCEFSSE [F17K]	2.33
KSPIAPCSLDKRVILIEHCEFSSE [F17E]	2.76
KSPIAPCSLDKRVILIRHCEFSSE [F17R]	1.69
KSPIAPCSLDKRVILIQHCEFSSE [F17Q]	2.44
KSPIAPCSLDKRVILIHHCEFSSE [F17H]	1.64
KSPIAPCSLDKRVILICHCEFSSE [F17C]	2.19
KSPIAPCSLDKRVILIAHCEFSSE [F17A]	1.92
KSPIAPCSLDKRVILIDHCEFSSE [F17D]	3.13
KSPIAPCSLDKRVILINHCEFSSE [F17N]	2.54
KSPIAPCSLDKRVILIPHCEFSSE [F17P]	2.36
KSPIAPCSLDKRVILIMHCEFSSE [F17M]	1.66
KSPIAPCSLDKRVILISHCEFSSE [F17S]	1.8
KSPIAPCSLDKRVILIIHCEFSSE [F17I]	2.47
KSPIAPCSDDKRVILIFHCEFSSE [L9D]	2.66
KSPIAPCSWDKRVILIFHCEFSSE [L9W]	2.9
KSPIAPCSGDKRVILIFHCEFSSE [L9G]	2.92
KSPIAPCSSDKRVILIFHCEFSSE [L9S]	2.4
